In US10766940 (GOVERNORS OF THE UNIVERSITY OF ALBERTA, dated 2020):
Positions of bridges follow the written chain, without caps; N, C: chain ends. No end group written: not given here.

T1: AMY3 receptor (heterodimeric complex of the calcitonin receptor and RAMP3) (UniProt P30988 25-474; O60896 24-148)
T1 sequence (looked up) 1: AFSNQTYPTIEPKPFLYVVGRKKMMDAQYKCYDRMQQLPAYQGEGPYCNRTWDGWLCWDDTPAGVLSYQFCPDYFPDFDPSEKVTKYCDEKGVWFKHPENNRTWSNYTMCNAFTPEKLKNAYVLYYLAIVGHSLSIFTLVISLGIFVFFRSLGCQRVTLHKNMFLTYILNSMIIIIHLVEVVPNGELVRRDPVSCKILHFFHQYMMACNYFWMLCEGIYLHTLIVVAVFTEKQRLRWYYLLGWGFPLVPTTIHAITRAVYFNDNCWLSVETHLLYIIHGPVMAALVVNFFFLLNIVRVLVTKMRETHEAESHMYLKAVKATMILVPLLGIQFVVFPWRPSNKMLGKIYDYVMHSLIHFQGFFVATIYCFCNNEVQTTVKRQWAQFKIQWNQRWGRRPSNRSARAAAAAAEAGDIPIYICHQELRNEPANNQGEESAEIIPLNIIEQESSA
T1 sequence (looked up) 2: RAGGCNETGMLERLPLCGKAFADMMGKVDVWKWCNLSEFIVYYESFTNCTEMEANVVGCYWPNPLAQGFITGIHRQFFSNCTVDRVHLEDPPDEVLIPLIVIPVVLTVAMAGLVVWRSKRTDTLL

B1: AC253 (peptide)
peptide: Ac-LGRLSQELHRLQTYPRTNTGSNTY-NH2
modifications: not fully specified; printed as Ac-LGRLSQELHRLQTYPRTNTGSNTY; also: labelled form for binding: Cy5/Cy5.5 on extra N-terminal beta-alanine spacer
notes: Synthetic 24-residue peptide; cAMP assay used the unlabelled peptide; also called linear AC253; Cy5-AC253
B2: cyclized AC253 (peptide)
peptide: CLGRLSQELHRLQTYPRTNTGSNTYC-NH2
modifications: disulfide 1-26; also: flanking Cys said to be D-Cys in one passage
notes: AC253 with one cysteine added at each terminus, cyclized by a disulfide; cAMP assay used the unlabelled peptide; also called cAC253; cyclic AC253
B3: peptide fragment R10 of AC253 (peptide)
peptide: RLQTYPRTNTGS
modifications: not fully specified (N-terminus, C-terminus)
notes: 12-residue fragment of AC253

Assays:
[1] = target: T1, AMY3 receptor (heterodimeric complex of …); test: cell-based or functional assay
[2] = target: T1, AMY3 receptor (heterodimeric complex of …); test: flow cytometry, Cy5.5-labelled peptide 5 µM; wild type HEK293 against AMY3-HEK cells
[3] = target: amylin receptor in mouse brain (mouse, UniProt Q60755 42-533); test: cell-based or functional assay
Chain of amylin receptor in mouse brain (Q60755 42-533): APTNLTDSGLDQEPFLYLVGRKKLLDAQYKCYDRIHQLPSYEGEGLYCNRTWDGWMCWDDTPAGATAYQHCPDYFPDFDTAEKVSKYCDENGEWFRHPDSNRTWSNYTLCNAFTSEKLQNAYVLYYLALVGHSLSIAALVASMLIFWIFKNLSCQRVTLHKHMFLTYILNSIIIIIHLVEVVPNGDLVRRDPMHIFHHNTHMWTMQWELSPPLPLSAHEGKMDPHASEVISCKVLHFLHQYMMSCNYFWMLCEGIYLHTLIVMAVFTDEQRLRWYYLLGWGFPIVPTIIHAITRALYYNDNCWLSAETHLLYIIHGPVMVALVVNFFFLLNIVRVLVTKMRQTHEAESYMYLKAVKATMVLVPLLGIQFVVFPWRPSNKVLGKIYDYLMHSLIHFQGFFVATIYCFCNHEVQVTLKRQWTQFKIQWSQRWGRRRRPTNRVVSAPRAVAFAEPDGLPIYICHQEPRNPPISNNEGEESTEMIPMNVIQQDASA

[4] = target: T1, AMY3 receptor (heterodimeric complex of …); test: flow cytometry, Cy5-labelled peptide 5 µM, AMY3-HEK cells; reference AC253
Protocol: (§1) d) For flow cytometry studies, AMY3-293 cells were used to determine cell binding and uptake and binding of Cy5-AC253, and Cy5-cAC253 peptides. Cell were plated at a density of 1.5 ×10^5 cells/well and cultured overnight in 12-well plates at 37° C. Cy5 labelled peptides (5 μM) were added and incubated for 1 hour at 37° C. in serum free media. The culture media was discarded, and cell monolayers were washed with PBS containing 2 mM EDTA and 0.5% BSA adjusted to pH 7.4 at 37° C. Cells were washed again with cold buffer and incubated with 0.25% trypsin to remove cell surface-associated fluorophores. Cells were dispersed in FACS solution (10% FBS in PBS) and analyzed using a FACSCanto II flow cytometer (BD Biosciences, USA) selecting a detection window between 720 and 840 nm. Fluorescence histograms and dot plots were generated using the data were processed with FLOWJO software (Tree Star, Inc, USA). At least 10,000 gated events per sample were analyzed. The experiment was repeated with different peptide concentration ranging from 0.5-10 μM, and mean fluorescence intensity of peptides was extrapolated. To further study the cell uptake mechanism, cells were preincubated with cytochalasin D (cytoD, […]) for 30 minutes, and the experiment was repeated as above. […]

[5] = target: T1, AMY3 receptor (heterodimeric complex of …); test: flow cytometry, dose-dependent binding of Cy5-labelled peptide (0.5-10 µM) to AMY3-HEK cells
Protocol: as §1

[6] = target: T2, AMY1 receptor (heterodimeric complex of the calcitonin receptor and RAMP1) (UniProt P30988 25-474; O60894 27-148); test: flow cytometry cell uptake, AMY1 transfected cells; reference other fragments
T2 construct: whole, on cells; also called amylin receptor subtype 1
T2 sequence (O60894 27-148, one chain of several): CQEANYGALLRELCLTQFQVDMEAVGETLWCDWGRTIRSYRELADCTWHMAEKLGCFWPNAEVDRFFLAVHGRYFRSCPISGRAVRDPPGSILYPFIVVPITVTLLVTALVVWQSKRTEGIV

Binder | IC50 for inhibition of hAmylin evoked cAMP increase in AMY3-HEK cells [1] [µM] | fold decrease in binding and uptake in wild type HEK293 cells compared to AMY3-HEK cells [2] [fold] | reduction in brain fluorescence after ip injection of Cy5-cAC253 mixed with 5-fold excess of unlabeled cAC253 (in vivo competition, ex vivo NIRF imaging) [3] [%] | fold potency versus AC253 in inhibiting AMY3 receptor activity (cAMP) [1] [fold] | fold binding and uptake compared to AC253 [4] [fold] | Kd [5] [nM] | fold increase in specific binding compared to other fragments [6] [fold]
B1 | ~0.85 | 10 |  |  |  |  | 
B2 | ~0.3 | 10 | 75 | 3 | 3 | 1450 | 
B3 |  |  |  |  |  |  | 3
